Here are results for 26 molecules from patent publication US20180155451A1 (published 2018).

The labels stand for the following.
B1: GpH7-B3 variant K326_07I/GpL16-k0 (antibody, human IgG1, kappa)
heavy: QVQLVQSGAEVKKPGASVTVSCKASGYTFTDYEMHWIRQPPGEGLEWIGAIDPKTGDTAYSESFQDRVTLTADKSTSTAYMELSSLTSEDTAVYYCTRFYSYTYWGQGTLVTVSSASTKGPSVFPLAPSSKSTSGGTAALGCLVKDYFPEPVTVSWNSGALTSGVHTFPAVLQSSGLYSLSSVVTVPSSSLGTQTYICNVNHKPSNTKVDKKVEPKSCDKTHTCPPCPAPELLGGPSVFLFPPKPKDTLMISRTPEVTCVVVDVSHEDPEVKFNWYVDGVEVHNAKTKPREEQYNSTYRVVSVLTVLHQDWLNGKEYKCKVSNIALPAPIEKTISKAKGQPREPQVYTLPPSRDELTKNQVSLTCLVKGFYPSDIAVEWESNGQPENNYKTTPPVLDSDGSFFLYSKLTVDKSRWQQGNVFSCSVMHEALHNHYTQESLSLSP
light: DIVMTQSPLSLPVTPGEPASISCQASESLVHSNRNTYLHWYLQKPGQSPQLLIYKVSNRFSGVPDRFSGSGSGTDFTLKISRVEAEDVGVYYCSQNTHVPPTFGQGTKVEIERTVAAPSVFIFPPSDEQLKSGTASVVCLLNNFYPREAKVQWKVDNALQSGNSQESVTEQDSKDSTYSLSSTLTLSKADYEKHKVYACEVTHQGLSSPVTKSFNRGEC
notes: homodimerized; mutation in both H chains; also called Ho Ab K326_07I
B2: GpH7-B3 variant A330_01G/GpL16-k0 (antibody, human IgG1, kappa)
heavy: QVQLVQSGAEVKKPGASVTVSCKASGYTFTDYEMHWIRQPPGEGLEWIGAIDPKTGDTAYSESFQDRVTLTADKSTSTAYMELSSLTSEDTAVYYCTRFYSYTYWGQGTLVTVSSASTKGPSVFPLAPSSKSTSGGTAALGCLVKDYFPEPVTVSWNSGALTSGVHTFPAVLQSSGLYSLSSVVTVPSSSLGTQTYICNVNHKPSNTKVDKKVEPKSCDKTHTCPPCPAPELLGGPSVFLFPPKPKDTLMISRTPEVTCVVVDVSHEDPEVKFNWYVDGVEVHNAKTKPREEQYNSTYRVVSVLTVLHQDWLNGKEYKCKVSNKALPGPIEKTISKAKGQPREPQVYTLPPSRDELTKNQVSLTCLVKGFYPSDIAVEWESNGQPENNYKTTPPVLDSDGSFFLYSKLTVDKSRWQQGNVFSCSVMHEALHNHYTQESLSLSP
light: B1 light
notes: homodimerized; mutation in both H chains; also called Ho Ab A330_01G
B3: GpH7-B3 variant A327_10E/GpL16-k0 (antibody, human IgG1, kappa)
heavy: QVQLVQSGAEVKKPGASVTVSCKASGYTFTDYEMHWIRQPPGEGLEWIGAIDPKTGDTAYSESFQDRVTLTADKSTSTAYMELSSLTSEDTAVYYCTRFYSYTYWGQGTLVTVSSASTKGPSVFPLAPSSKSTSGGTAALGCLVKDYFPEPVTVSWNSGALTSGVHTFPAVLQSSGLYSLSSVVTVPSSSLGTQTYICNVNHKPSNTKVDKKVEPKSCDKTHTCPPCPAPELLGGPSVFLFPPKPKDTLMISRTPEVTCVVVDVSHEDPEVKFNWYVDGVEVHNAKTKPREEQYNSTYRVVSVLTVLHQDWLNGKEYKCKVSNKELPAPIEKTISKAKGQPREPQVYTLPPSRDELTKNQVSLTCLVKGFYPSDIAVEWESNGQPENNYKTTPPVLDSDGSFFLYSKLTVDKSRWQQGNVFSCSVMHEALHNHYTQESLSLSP
light: B1 light
notes: homodimerized; mutation in both H chains; also called Ho Ab A327_10E
B4: GpH7-B3 variant A327_09D/GpL16-k0 (antibody, human IgG1, kappa)
heavy: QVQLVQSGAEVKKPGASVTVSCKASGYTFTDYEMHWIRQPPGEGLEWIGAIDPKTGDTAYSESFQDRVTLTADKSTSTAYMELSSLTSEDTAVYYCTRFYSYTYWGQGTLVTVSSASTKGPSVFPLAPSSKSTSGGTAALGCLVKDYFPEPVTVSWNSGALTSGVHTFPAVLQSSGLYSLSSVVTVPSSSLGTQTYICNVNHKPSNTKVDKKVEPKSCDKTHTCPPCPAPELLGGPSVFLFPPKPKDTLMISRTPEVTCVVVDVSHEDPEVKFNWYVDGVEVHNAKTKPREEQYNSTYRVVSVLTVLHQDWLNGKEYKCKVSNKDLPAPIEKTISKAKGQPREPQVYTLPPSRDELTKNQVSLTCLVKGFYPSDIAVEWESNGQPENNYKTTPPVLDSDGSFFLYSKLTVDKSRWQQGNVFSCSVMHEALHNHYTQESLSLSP
light: B1 light
notes: homodimerized; mutation in both H chains; also called Ho Ab A327_09D
B5: GpH7-A5/GpH7-B3 variant S298_03V/GpL16-k0 (antibody, human IgG1, kappa)
heavy 1: not shown
heavy 2: not shown
light: B1 light
notes: mutation in one H chain only; also called He Ab S298_03V; S298V
B6: GpH7-A5/GpH7-B3 variant S324_16H/GpL16-k0 (antibody, human IgG1, kappa)
heavy 1: not shown
heavy 2: not shown
light: B1 light
notes: mutation in one H chain only; also called He Ab S324_16H; S324H
B7: GpH7-A5/GpH7-B3 variant S324_15Y/GpL16-k0 (antibody, human IgG1, kappa)
heavy 1: not shown
heavy 2: not shown
light: B1 light
notes: mutation in one H chain only; also called He Ab S324_15Y; S324Y
B8: GpH7-A5/GpH7-B3 variant Y300_12R/GpL16-k0 (antibody, human IgG1, kappa)
heavy 1: not shown
heavy 2: not shown
light: B1 light
notes: mutation in one H chain only; also called He Ab Y300_12R; Y300R
B9: GpH7-A5/GpH7-B3 variant S298_06M/GpL16-k0 (antibody, human IgG1, kappa)
heavy 1: not shown
heavy 2: not shown
light: B1 light
notes: mutation in one H chain only; also called He Ab S298_06M; S298M
B10: GpH7-A5/GpH7-B3 variant T335_09D/GpL16-k0 (antibody, human IgG1, kappa)
heavy 1: not shown
heavy 2: not shown
light: B1 light
notes: mutation in one H chain only; also called He Ab T335_09D; T335D
B11: GpH7-A5/GpH7-B3 variant S298_08L/GpL16-k0 (antibody, human IgG1, kappa)
heavy 1: not shown
heavy 2: not shown
light: B1 light
notes: mutation in one H chain only; also called He Ab S298_08L; S298L
B12: GpH7-A5/GpH7-B3 variant T335_10E/GpL16-k0 (antibody, human IgG1, kappa)
heavy 1: not shown
heavy 2: not shown
light: B1 light
notes: mutation in one H chain only; also called He Ab T335_10E; T335E
B13: GpH7-A5/GpH7-B3 variant S324_08L/GpL16-k0 (antibody, human IgG1, kappa)
heavy 1: not shown
heavy 2: not shown
light: B1 light
notes: mutation in one H chain only; also called He Ab S324_08L; S324L
B14: GpH7-A5/GpH7-B3 variant T335_06M/GpL16-k0 (antibody, human IgG1, kappa)
heavy 1: not shown
heavy 2: not shown
light: B1 light
notes: mutation in one H chain only; also called He Ab T335_06M; T335M
B15: GpH7-A5/GpH7-B3 variant S298_12R/GpL16-k0 (antibody, human IgG1, kappa)
heavy 1: not shown
heavy 2: not shown
light: B1 light
notes: mutation in one H chain only; also called He Ab S298_12R; S298R
B16: GpH7-A5/GpH7-B3 variant S337_03V/GpL16-k0 (antibody, human IgG1, kappa)
heavy 1: not shown
heavy 2: not shown
light: B1 light
notes: mutation in one H chain only; also called He Ab S337_03V; S337V
B17: GpH7-A5/GpH7-B3 variant T335_11K/GpL16-k0 (antibody, human IgG1, kappa)
heavy 1: not shown
heavy 2: not shown
light: B1 light
notes: mutation in one H chain only; also called He Ab T335_11K; T335K
B18: GpH7-A5/GpH7-B3 variant T335_07I/GpL16-k0 (antibody, human IgG1, kappa)
heavy 1: not shown
heavy 2: not shown
light: B1 light
notes: mutation in one H chain only; also called He Ab T335_07I; T335I
B19: GpH7-A5/GpH7-B3 variant S337_12R/GpL16-k0 (antibody, human IgG1, kappa)
heavy 1: not shown
heavy 2: not shown
light: B1 light
notes: mutation in one H chain only; also called He Ab S337_12R; S337R
B20: GpH7-A5/GpH7-B3 variant S298_07I/GpL16-k0 (antibody, human IgG1, kappa)
heavy 1: not shown
heavy 2: not shown
light: B1 light
notes: mutation in one H chain only; also called He Ab S298_07I; S298I
B21: GpH7-A5/GpH7-B3 variant T335_12R/GpL16-k0 (antibody, human IgG1, kappa)
heavy 1: not shown
heavy 2: not shown
light: B1 light
notes: mutation in one H chain only; also called He Ab T335_12R; T335R
B22: GpH7-A5/GpH7-B3 variant T335_04F/GpL16-k0 (antibody, human IgG1, kappa)
heavy 1: not shown
heavy 2: not shown
light: B1 light
notes: mutation in one H chain only; also called He Ab T335_04F; T335F
B23: GpH7-A5/GpH7-B3 variant S337_09D/GpL16-k0 (antibody, human IgG1, kappa)
heavy 1: not shown
heavy 2: not shown
light: B1 light
notes: mutation in one H chain only; also called He Ab S337_09D; S337D
B24: GpH7-A5/GpH7-B3 variant T335_05P/GpL16-k0 (antibody, human IgG1, kappa)
heavy 1: not shown
heavy 2: not shown
light: B1 light
notes: mutation in one H chain only; also called He Ab T335_05P; T335P
B25: GpH7-A5/GpH7-B3 variant S298_14T/GpL16-k0 (antibody, human IgG1, kappa)
heavy 1: not shown
heavy 2: not shown
light: B1 light
notes: mutation in one H chain only; also called He Ab S298_14T; S298T
B26: GpH7-A5/GpH7-B3 variant S337_01G/GpL16-k0 (antibody, human IgG1, kappa)
heavy 1: not shown
heavy 2: not shown
light: B1 light
notes: mutation in one H chain only; also called He Ab S337_01G; S337G

The target in one assay is T1, FcγRIIb extracellular domain with C-terminal His tag (human, UniProt P31994 43-217).
T1 construct: extracellular domain; expressed in FreeStyle293 cells; analyte in the Biacore assay; also called FcgRIIb; 2b; not shown: His tag at the C terminus
T1 sequence (looked up): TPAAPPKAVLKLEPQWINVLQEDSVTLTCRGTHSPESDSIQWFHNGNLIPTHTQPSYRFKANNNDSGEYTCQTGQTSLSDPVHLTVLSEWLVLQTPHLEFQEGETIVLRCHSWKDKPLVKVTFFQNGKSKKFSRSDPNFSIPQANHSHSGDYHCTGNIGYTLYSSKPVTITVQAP
Kind of assay: SPR (Biacore), captured antibody, FcγRIIb analyte; binding relative to GpH7-B3/GpL16-k0 = 100. For orientation: Surface plasmon resonance follows binding to a sensor surface in real time, without labels.
In the case of B1, the Ho/Con_2b is 170 % of control.

For B2, the Ho/Con_2b is 102 % of control.

For B3, the Ho/Con_2b was 148 % of control.

For B4, the Ho/Con_2b was 175 % of control.

The target of a further assay is T2, FcγRIa extracellular domain with C-terminal His tag (human, UniProt P12314 16-292).
T2 construct: extracellular domain; also called FcgRI; CD64; not shown: His tag at the C terminus
T2 sequence (P12314 16-292): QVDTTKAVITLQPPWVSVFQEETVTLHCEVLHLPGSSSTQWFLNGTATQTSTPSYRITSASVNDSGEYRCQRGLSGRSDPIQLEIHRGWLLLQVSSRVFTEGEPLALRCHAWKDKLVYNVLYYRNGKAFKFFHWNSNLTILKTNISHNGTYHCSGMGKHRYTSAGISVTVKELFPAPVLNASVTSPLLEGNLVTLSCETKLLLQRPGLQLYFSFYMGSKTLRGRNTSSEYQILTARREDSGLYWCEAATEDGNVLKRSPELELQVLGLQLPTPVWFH
Kind of assay: SPR Biacore, relative FcγRIa binding vs GpH7-A5/GpH7-B3/GpL16-k0.
For B5, the He/Con_1a was 110 % of HeCon Ab (=100).

With B6, the He/Con_1a was 113 % of HeCon Ab (=100).

As for B7, the He/Con_1a is 114 % of HeCon Ab (=100).

Regarding B8, the He/Con_1a is 105 % of HeCon Ab (=100).

As to B9, the He/Con_1a was 114 % of HeCon Ab (=100).

Regarding B10, the He/Con_1a was 108 % of HeCon Ab (=100).

Take B11: the He/Con_1a was 107 % of HeCon Ab (=100).

Consider B12, for which the He/Con_1a is 109 % of HeCon Ab (=100).

For the molecule B13, the He/Con_1a was 103 % of HeCon Ab (=100).

As to B14, the He/Con_1a was 107 % of HeCon Ab (=100).

In the case of B15, the He/Con_1a is 109 % of HeCon Ab (=100).

As to B16, the He/Con_1a was 107 % of HeCon Ab (=100).

For B17, the He/Con_1a was 111 % of HeCon Ab (=100).

As for B18, the He/Con_1a was 109 % of HeCon Ab (=100).

For the molecule B19, the He/Con_1a is 106 % of HeCon Ab (=100).

As to B20, the He/Con_1a was 107 % of HeCon Ab (=100).

Turning to B21, the He/Con_1a was 113 % of HeCon Ab (=100).

On to B22, for which the He/Con_1a was 105 % of HeCon Ab (=100).

As for B23, the He/Con_1a is 106 % of HeCon Ab (=100).

For the molecule B24, the He/Con_1a was 106 % of HeCon Ab (=100).

Turning to B25, the He/Con_1a was 107 % of HeCon Ab (=100).

In the case of B26, the He/Con_1a is 107 % of HeCon Ab (=100).
